Consider 20 molecules from US6525022B1, “Receptor specific atrial natriuretic peptides” (Genentech, Inc., priority 1993, dated 2003).

Read-outs that look alike come from different tables or passages of the source. Where a SMILES comes first, the peptide text is derived from it. Bridges are numbered along the chain shown (N, C = ends). Primed or numbered codes have the meaning given here. Where no end group is shown, it is not given here. [ ]: non-standard residue; d: D form. Phg′ = phenylglycine, D or L; Mpa = O=C(O)CCS

The target of one series is T1, hNPR-A (Homo sapiens, UniProt P16066).
T1 sequence (P16066 33-1061): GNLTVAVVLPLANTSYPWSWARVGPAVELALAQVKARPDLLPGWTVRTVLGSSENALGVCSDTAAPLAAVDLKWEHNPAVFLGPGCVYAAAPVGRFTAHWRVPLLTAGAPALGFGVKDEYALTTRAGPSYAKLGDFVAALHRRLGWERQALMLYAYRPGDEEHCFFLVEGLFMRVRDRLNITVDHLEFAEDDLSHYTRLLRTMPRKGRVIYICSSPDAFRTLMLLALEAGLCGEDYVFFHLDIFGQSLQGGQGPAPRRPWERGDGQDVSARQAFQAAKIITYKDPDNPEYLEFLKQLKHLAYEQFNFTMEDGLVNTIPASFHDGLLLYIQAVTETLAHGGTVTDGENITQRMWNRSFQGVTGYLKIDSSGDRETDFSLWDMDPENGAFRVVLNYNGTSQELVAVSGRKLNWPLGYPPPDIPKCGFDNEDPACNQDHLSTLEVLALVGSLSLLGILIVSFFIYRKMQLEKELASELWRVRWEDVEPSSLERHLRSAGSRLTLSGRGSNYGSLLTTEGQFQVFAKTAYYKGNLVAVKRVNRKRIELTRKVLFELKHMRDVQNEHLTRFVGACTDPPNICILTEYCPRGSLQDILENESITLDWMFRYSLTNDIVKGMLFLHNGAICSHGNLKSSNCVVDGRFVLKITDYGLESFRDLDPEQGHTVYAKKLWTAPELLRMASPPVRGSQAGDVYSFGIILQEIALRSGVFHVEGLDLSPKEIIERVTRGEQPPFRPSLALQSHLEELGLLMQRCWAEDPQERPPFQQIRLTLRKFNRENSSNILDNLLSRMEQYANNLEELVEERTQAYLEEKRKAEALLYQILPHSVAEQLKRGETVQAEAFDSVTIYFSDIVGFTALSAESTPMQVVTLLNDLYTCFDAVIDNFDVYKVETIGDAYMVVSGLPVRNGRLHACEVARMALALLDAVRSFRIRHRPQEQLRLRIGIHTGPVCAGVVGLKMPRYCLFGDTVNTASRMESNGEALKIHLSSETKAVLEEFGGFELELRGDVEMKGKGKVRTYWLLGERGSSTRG
The series is described as follows: Competition binding to hNPR-A (Table I, FIG. 5).

A further series addresses T2, hNPR-C (Homo sapiens, UniProt P17342).
T2 sequence (P17342 27-541): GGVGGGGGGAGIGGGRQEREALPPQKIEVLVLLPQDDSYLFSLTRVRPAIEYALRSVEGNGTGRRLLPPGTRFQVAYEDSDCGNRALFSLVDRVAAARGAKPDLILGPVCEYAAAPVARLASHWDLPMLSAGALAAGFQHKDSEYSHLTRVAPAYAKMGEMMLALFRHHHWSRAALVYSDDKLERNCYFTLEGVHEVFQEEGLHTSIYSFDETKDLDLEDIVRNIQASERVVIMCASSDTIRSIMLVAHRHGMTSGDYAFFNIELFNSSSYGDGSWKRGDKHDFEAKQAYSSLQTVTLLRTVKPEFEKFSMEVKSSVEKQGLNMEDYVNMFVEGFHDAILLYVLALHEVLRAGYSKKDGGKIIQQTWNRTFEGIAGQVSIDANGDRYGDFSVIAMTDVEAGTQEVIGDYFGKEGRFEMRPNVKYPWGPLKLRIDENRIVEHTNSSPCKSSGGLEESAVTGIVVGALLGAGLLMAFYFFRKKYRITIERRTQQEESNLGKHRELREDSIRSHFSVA
Kind of series: Competition binding to hNPR-C (Table I, FIG. 5).

Series [1] addresses human NEP (hNEP), endopeptidase 24.11 (Homo sapiens, UniProt P08473). The series is described as follows: Degradation of ANF variants by human NEP, half-life by HPLC. Conditions: isolated human NEP (endopeptidase 24.11) in HEPES buffer, Half-Life (min.), FIG. 7: ANF variants 32 nM/ml, NEP 0.45 μg/ml.
Experimental: The half-life of various ANF variants was measured according to the following procedure.
ANF Solution: An accurately weighed amount of ANF or variant thereof was diluted with HEPES buffer (5 ml of 1 M HEPES Buffer and 0.1 ml of Tween 20 diluted to a 100 ml volume with DI water) to make a 0.5 mg/ml solution.
hNEP/HEPES Solution: 7.5 μl of a 1 mg/ml solution of hNEP (see U.S. Pat. No. 4,960,700) is dissolved in 992.5 μl of HEPES buffer (as described above) and vortex mixed. The resulting mixture is stored in a silylated Eppendorf tube and periodically checked for activity against an ANF peptide standard.
Assay conditions: 150 μl of an ANF solution in the HEPES buffer is diluted with 820 μl HEPES buffer and vortex mixed (1 sec). Careful note of the time is taken as 30 μl of the hNEP/HEPES solution is added and the solution is vortex mixed for 1 sec. and analyzed by periodic removal of constant volume aliquots by the HPLC autosampler. A 2.5 cm×50 cm, C-18 reversed-phase column (15 micron, 300 Å]) was used and elution was achieved by using a shallow gradient of increasing acetonitrile. The elution conditions consisted of a 10% to 50% acetonitrile (containing 0.1% TFA) gradient at 0.5% min.^−1. The aqueous phase was 0.1% TFA in water. The peak area of the ANP peptide is recorded at these periodic intervals and a half-life is determined from these values.
In series [2] the target is human neutral endopeptidase 24.11 (human) (UniProt P08473). The series is described as follows: cell-based or functional assay.
Series [3] deals with T3, human neutral endopeptidase 24.11 (human), P08473.
T3 chain: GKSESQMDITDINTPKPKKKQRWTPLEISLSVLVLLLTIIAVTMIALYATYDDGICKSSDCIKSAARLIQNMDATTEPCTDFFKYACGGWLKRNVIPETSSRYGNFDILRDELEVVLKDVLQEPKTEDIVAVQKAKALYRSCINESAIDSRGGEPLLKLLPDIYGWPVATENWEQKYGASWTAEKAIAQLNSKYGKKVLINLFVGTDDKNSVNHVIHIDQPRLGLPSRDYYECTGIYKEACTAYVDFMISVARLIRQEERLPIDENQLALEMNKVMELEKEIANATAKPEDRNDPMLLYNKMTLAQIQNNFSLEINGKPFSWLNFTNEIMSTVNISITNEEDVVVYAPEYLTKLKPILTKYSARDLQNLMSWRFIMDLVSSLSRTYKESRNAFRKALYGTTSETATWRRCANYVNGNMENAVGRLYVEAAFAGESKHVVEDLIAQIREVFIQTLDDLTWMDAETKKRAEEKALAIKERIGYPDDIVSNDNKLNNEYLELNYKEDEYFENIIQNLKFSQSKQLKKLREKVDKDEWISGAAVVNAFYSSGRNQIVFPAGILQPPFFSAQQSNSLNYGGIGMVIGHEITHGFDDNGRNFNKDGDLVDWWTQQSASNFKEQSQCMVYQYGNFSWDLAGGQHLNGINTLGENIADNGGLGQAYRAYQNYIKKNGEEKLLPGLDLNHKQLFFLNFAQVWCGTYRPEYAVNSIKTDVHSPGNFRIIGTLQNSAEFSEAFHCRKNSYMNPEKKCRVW
The series is described as follows: cell-based or functional assay.

Series [4] concerns the target T4, human neutral endopeptidase 24.11 (human, UniProt P08473 2-750, limits assumed). Kind of series: cell-based or functional assay.
In series [5] the target is T5, human natriuretic peptide clearance receptor-C (human, UniProt P17342 27-541).
T5 construct: whole, on cells; also called hNPR-C; human NPR-C
T5 sequence (looked up): T2 sequence (P17342 27-541)
The series is described as follows: competition binding, Table I; tracer and receptor format not given.

Series [6] addresses T6, human natriuretic peptide receptor-A (human, UniProt P16066 33-1061).
T6 construct: whole, on cells; also called hNPR-A; human NPR-A
T6 sequence (looked up): T1 sequence (P16066 33-1061)
Described as above.

In series [7] the target is T4, human neutral endopeptidase 24.11. The series is described as follows: cell-based or functional assay. The source holds these as a separate data set.
Series [8] has as its target T7, human natriuretic peptide clearance receptor-C (human), P17342.
T7 chain: T2 sequence (P17342 27-541)
The series is described as follows: competition binding, Table I; tracer and receptor format not given.

The target in series [9] is T7, human natriuretic peptide clearance …. Kind of series: competition binding, membranes. Conditions: chains peptide; modification not given.
Series [10] concerns the target T8, human natriuretic peptide receptor-A (human), P16066.
T8 chain: T1 sequence (P16066 33-1061)
The series is described as follows: competition binding vs 125I-rat ANP, membranes. The note with it: chains peptide; modification not given.

human NEP (hNEP), endopeptidase 24.11, sequence (P08473 whole entry): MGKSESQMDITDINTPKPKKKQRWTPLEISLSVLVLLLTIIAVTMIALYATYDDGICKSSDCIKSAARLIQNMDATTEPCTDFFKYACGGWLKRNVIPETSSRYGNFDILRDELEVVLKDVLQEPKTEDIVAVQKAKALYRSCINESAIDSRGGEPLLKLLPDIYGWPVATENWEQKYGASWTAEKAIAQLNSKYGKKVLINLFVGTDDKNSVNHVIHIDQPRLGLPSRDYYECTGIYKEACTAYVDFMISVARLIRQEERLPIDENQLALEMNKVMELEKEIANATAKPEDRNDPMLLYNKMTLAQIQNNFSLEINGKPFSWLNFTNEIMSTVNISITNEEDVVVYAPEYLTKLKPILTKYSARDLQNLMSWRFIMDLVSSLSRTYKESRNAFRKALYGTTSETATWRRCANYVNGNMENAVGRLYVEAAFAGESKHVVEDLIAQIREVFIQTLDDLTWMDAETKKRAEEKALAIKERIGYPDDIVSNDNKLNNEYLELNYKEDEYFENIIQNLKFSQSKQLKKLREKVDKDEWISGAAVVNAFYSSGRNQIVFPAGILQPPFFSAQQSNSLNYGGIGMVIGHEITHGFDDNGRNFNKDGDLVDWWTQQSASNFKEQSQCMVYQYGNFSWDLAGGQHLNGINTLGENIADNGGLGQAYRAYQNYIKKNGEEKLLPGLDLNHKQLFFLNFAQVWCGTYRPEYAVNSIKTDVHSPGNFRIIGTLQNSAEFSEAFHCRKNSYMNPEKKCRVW

Turning to `CC[C@H](C)[C@@H]1NC(=O)[C@H](CCCNC(=N)N)NC(=O)[C@H](CC(=O)O)NC(=O)[C@H](CCSC)NC(=O)[C@H](CO)NC(=O)[C@H](CCCCN)NC(=O)CNC(=O)[C@H](Cc2ccccc2)NC(=O)[C@@H](NC(=O)[C@H](CO)NC(=O)[C@H](CO)NC(=O)[C@H](CCCNC(=N)N)NC(=O)[C@H](CCCNC(=N)N)NC(=O)[C@H](CC(C)C)NC(=O)[C@@H](N)CO)CSSC[C@@H](C(=O)N[C@@H](CC(N)=O)C(=O)N[C@@H](CO)C(=O)N[C@@H](Cc2ccccc2)C(=O)N[C@@H](CCCNC(=N)N)C(=O)N[C@@H](Cc2ccc(O)cc2)C(=O)O)NC(=O)CNC(=O)[C@H](CC(C)C)NC(=O)CNC(=O)[C@H](CO)NC(=O)[C@H](CCC(N)=O)NC(=O)[C@H](C)NC(=O)CNC1=O` [ANF 60] (H-SLRRSSCFGKSMDRIGAQSGLGCNSFRY-OH; disulfide 7-23; C-terminus assumed), the IC50 on hNPR-A (read-out: Binding Affinity IC50(pM) hNPR-A) stood at 112 pM; on hNPR-C (read-out: Binding Affinity IC50(pM) hNPR-C) it was 5980 pM. This molecule also displayed a half-life at 32 nM/ml in [1] of 5.07 h. Regarding ANF 28 (peptide), in series [2], the Half-Life turned out to be 9.52 h. For ANF 40 (peptide), the Half-Life in series [2] is 9.95 h. In the case of “hANF(1-28) G16R (SLRRSSCFGGRMDRIRAQSGLGCNSFRY) [hANF with the single substitution of arginine for glycine at position 16]”, the “Effect of substitution on NPR-A binding” value with hNPR-A (relative to wild type) is reported as “negligible effect”. Besides, the “Reduction of NPR-C affinity” value in the series with hNPR-C (relative to wild type) is on record as “about 150 fold”. As for SLRRSSCFGGRMDRIGAQSGLGCNSFRY (modifications not checked) [hANF(1-28), wild-type human atrial natriuretic factor], the Half-Life in series [3] is 2.27 h.

B1: ANF 24 (peptide)
peptide: SLRRSSCFGGRIDRIRAQSGLGCNSFRY
modifications: disulfide 7-23
notes: Synthetic; Cys7-Cys23 disulfide; also called hANF(1-28) M12I, G16R
Consider B1, for which the “Half-Life” value in series [4] is 10 h. In [5], this molecule registered an IC50 of 5.64 nM.

B2: ANF 50 (peptide)
peptide: SLRRSSCFTGSMDRIGAQSGLGCNSFRY
modifications: disulfide 7-23
notes: Cys7-Cys23 disulfide; also called hANF(1-28) G9T, R11S
B2: in series [4], the “Half-Life” value was found to be 1.55 h. Besides, the IC50 in [6] worked out at 0.57 nM; in [5], 251 nM. Regarding SLRRSSCFGGRIDSIRAQSGLGCNSFRY (disulfide 7-23, also called hANF(1-28) M12I, R14S, G16R) [ANF 25], the “Half-Life” value in [7] was found to be 3.32 h. For the same molecule, the 50% inhibitory concentration (IC50) in series [6] amounted to 0.056 nM; in [5], 3.31 nM.

SLRRSSCFAGSIDRIRAQSGLGCNSFRY (modifications not checked) [ANF 78]: the IC50 in [8] was 8.64 nM. As to [Mpa]F[dA]GDIDRIRAQSGLGCNSFRY (ends and bridges not checked) [ANF 92], the “Half-Life” value in series [7] turned out to be 1.77 h.

B3: ANF 81 (peptide)
peptide: [Mpa]F[dA]GSIDRIRAQSGLGCNSFRY
modifications: disulfide 1-17; not fully specified; printed as Mpa-Phe-(D-Ala)-Gly-Ser-Ile-Asp-Arg-Ile-Arg-Ala-Gln-Ser-Gly-Leu-Gly-Cys-Asn-Ser-Phe-Arg-Tyr
As to B3, the IC50 in series [6] came to 1.4 nM; in series [5] it was 3860 nM. For TAPRSLRRSSCFGGRIDRIRAQSGLGCNSFRY (disulfide 11-27) [ANF 23], in series [4], the “Half-Life” value stood at 12.3 h. With TAPRSLRRSSCFGGRMDRIGAQSGLGCNSFRY [urodilatin], the “Half-Life” value in series [4] amounted to 31 h; in series [7], 27.1 h.

Regarding SLRRSSCFTGSIDRIRAQSGLGCNSFRY (modifications not checked) [ANF 27], the Half-Life in [3] worked out at 5.57 h. The IC50 in series [8] came to 1000 nM. For the molecule SLRRSSC[Phg′]TGSIDRIRAQSGLGCNSFRY (disulfide 7-23; also: Phg configuration D or L not given here) [ANF 100-1], the IC50 stood at 0.187 nM in series [6] and 3230 nM in series [5].

B4: ANF 90 (peptide)
peptide: SLRRSSCF[dA]GDIDRIRAQSGLGCNSFRY
modifications: disulfide 7-23
notes: Cys7-Cys23 disulfide; also called hANF(1-28) G9(d-Ala), R11D, M12I, G16R
Consider B4, for which the IC50 in [6] came to 1.2 nM; in series [5], 6140 nM.

With SLRRSSC[dA]FTGSIDRIRAQSGLGCNSFRY (disulfide 7-24) [ANF 75], the values for the IC50 in [6] and in series [5] were 2.08 nM and 2000 nM, respectively. Regarding SLRRSSCFGGRIDRIREASGLGCNSFRY [ANF 99], the IC50 is 121 nM in series [9] and 0.145 nM in series [10]. On to SLRRSSCFGGRIDRIGAQSGLGCNSFRY [rat ANP], for which the Half-Life in series [3] amounted to 2.75 h. For the same molecule, the IC50 in series [9] stood at 0.145 nM; in series [10] it was 0.181 nM. With [Mpa]F[dT]GSIDRIRAQSGLGCNSFRY (disulfide 1-17) [ANF 80], the IC50 in [6] worked out at 0.423 nM; in series [5], 739 nM.

In general, IC50 refers to the concentration that inhibits the measured activity by half. What is called half-life is the time needed for the level to fall by half in the phase considered. Low readings indicate rapid decline, high ones slow decline.
